The data set can be described thus: soluble on expression in E. coli; label from the status in PepcDB or PDB records.
For “VNVLKKDITASPVLSETAPTSAPSEAAAANEIKQPIPSQKAEMSELKKLTDIISPELIEPNLVGETSDDIIDELIQKLSRRGALLSESGFKQAILNREQQGTTAIGMNIAIPHGKSEAVREPSVAFGIKRSGVDWE”, the “soluble on expression in E. coli” value was “not soluble”.
On to “VPGTVEVVFDKPEYRTGEEASALITFPEPVEDALLSLERDKVEATALLSKGADWLRLEKLNPTQYRVWIPVREEFSPNLTFSVLYTKGGDYSFQNAGIKVGMPQVEIDIATDKERYEPGETVTVTLATRFAGKPVSSHLTVSVVDEMVYALQAE”, for which the “soluble on expression in E. coli” value is “not soluble”.
Then “VQVGNCLQVMWLADRHSDPELYTAAKHCAKTHLAQLQNTEEFLHLPHRLLTDIISDGVPCSQNPTEAIEAWINFNKEEREAFAESLRTSLKEIGENVH”, with “soluble”.
Then “VRLLESGGGLVQPGGSLKLSCAASGFDYSRYWMSWVRQAPGKGLKWIGEINPVSSTINYTPSLKDKFIISRDNAKDTLYLQISKVRSEDTALYYCARLYYGYGYWYFDVWGAGTTVTVSSAKTTPPSVYPLAPGSAAAAASMVTLGCLVKGYFPEPVTVTWNSGSLAAGVHTFPAVLQAALYTLSSSVTVPSSSWPSETVTCNVAHPASSTKVDKKIVPRA”, with “soluble”; and “VSNKTYYLVGTSHISENSVKLVKEVIERVQPDTVSIELDKKRYEKYTNSNQWGNTDIIKIIKEKKLVVLISNIVYSAYQKKLANTKGTTQAGELIQAIKSAKEIGANIQLIDRDIQVTFKRMWRHLSFLEKPKLFMTFFTEFDDIEQDKLEEYLESDSFDKVFISLSKKYPSLYQDMITDRDKYMSTKLKNNSSQVNVVVVGKAHMKGIKEKLEKRTEFSL”, with “not soluble”.
For the sequence “VSPKTYKDADFYVAPTQQDVNYDLVDDFGANGNDTSDDSNALQRAINAISRKPNGGTLLIPNGTYHFLGIQMKSNVHIRVESDVIIKPTWNGDGKNHRLFEVGVNNIVRNFSFQGLGNGFLVDFKDSRDKNLAVFKLGDVRNYKISNFTIDDNKTIFASILVDVTERNGRLHWSRNGIIERIKQNNALFGYGLIQTYGADNILFRNLHSEGGIALRMETDNLLMKNYKQGGIRNIFADNIRCSKGLAAVMFGPHFMKNGDVQVTNVSSVSCGSAVRSDSGFVELFSPTDEVHTRQSWKQAVESKLGRGCAQTPYARGNGGTRWAARVTQKDACLDKAKLEYGIEPGSFGTVKVFDVTARFGYNADLKQDQLDYFSTSNPMCKRVCLPTKEQWSKQGQIYIGPSLAAVIDTTPETSKYDYDVKTFNVKRINFPVNSHKTIDTNTESSRVCNYYGMSECSSSRWER”, the “soluble on expression in E. coli” value is “soluble”.
Consider “VTEVEQKLQIVHQTLSMLDSHGFENILQEMLQSITLKTGELLGADRTTIFLLDEEKQELWSIVAAGEGDRSLEIRIPADKGIAGEVATFKQVVNIPFDFYHDPRSIFAQKQEKITGYRTYTMLALPLLSEQGRLVAVVQLLNKLKPYSPPDALLAERIDNQGFTSADEQLFQEFAPSIRLILESSRSFYIATQKQRAAAAMMKAVKSLSQSSLDLEDTLKRVMDEAKELMNADRSTLWLIDRDRHELWTKITQDNGSTKELRVPIGKGFAGIVAASGQKLNIPFDLYDHPDSATAKQIDQQNGYRTCSLLCMPVFNGDQELIGVTQLVNKKKTGEFPPYNPETWPIAPECFQASFDRNDEEFMEAFNIQAGVALQNAQLFATVKQQEQGSRSHHHHHH”, for which the “soluble on expression in E. coli” value is given as “soluble”.
The same measure for “VTGFGLRLAEAKARRGPLCLGIDPHPELLRGWDLATTADGLAAFCDICVRAFADFAVVKPQVAFFESYGAAGFAVLERTIAELRAADVLVLADAKRGDIGATMSAYATAWVGDSPLAADAVTASPYLGFGSLRPLLEVAAAHGRGVFVLAATSNPEGAAVQNAAADGRSVAQLVVDQVGAANEAAGPGPGSIGVVVGATAPQAPDLSAFTGPVLVPGVGVQGGRPEALGGLGGAASSQLLPAVAREVLRAGPGVPELRAAGERMRDAVAYLAAV”: “not soluble”; for “VTPELDEREQEVIVRSAINQFEGFIKLNKKIPPEVLTSLNGIDEAARLADTIAAHMPLKLVDKQQVLEIIDVTERLEFLMGQMESEIDLLQVEKRIRGRVKKQMEKSQREYYLNEQMKAIQKELGEMEDAPDEFETLQKKIDESKMPQEAREKTEQELQKLKMMSPMSAEATVVRSYIDWMVSVPWTKRSKVKKNLAKAEEILNEDHYGLERVKERILEYLAVQNRINKLKGPILCLVGPPGVGKTSLGRSIASATGRKYVRMALGGVRDEAEIRGHRRTYIGSLPGKLIQKMSKVGVKNPLFLLDEIDKMSSDMRGDPASALLEVLDPEQNNSFNDHYLEVDYDLSDVMFVATSNSMNIPGPLLDRMEVIRL”: “not soluble”; for “VTVQDGNFSFSLESVKKLKDLQEPQEPRVGKLRNFAPIPGEPVVPILCSNPNFPEELKPLCKEPNAQEILQRLEEIAEDPGTCEICAYAACTGC”: “soluble”.
Consider “VVQPADIDVPETPARPVLVVDFGAQYAQLIARRVREARVFSEVIPHTASIEEIRARQPVALVLSGGPASVYADGAPKLDPALLDLGVPVLGICYGFQAMAQALGGIVAHTGTREYGRTELKVLGGKLHSDLPEVQPVWMSHGDAVTAAPDGFDVVASSAGAPVAAFEAFDRRLAGVQYHPEVMHTPHGQQVLSRFLHDFAGLGAQWTPANIANALIEQVRTQIGDGHAICGLSGGVDSAVAAALVQRAIGDRLTCVFVDHGLLRAGERAQVQRDFVAATGANLVTVDAAETFLEALSGVSAPEGKRKIIGRQFIRAFEGAVRDVLDGKTAEFLVQGTLYPDVVESGGGSGTANIKSHHNVGGLPDDLKFTLVEPLRLLFKDEVRAVGRELGLPEEIVARQPFPGPGLGIRIVGEVTAKRLDTLRHADSIVREELTAAGLDNQIWQCPVVLLADVRSVGVQGDGRTYGHPIVLRPVSSEDAMTADWTRVPYEVLERISTRITNEVAEVNRVVLDITSKPPATIEWE”, for which the “soluble on expression in E. coli” value is listed as “not soluble”.
The same measure for “WKRGKISTQLDDDEFRAGMRKAQVIDVREKKEFDAGHILGARNIPYSQMKNRTQELRSDLPVYLYDQGRTFSGRAAMLLSKKGFTQLYILKNGYQRWTGKTKKTKY”: “soluble”.
With “WTVNPYRGCTHACVYCFARKTHSYLDLDTGLGFDSQIVVKINAPDLLRRQLASRRWHGEHVAMGTNVDCYQRAEGRYQLMPGIIAALRDHANPFSILTKGTLILRDLDLLEQAAEVTDVGISVSVGFTDHELWRTVEPGTPAPERRLDVVRTLSEHGIGCGVLMAPVIPFLSDQPAQLRATVRAIAAAGATSVTPLVLHLRPGAREWFMAWLEHHHPYLVRRYERLYAEGAYAPKWYQRRITRQVHELAQEYGIGPTRAGMPRRIPEPEPETPPTPEPTQLTLL”, the “soluble on expression in E. coli” value is “not soluble”.
The same measure for “WYPSRPLVTTPSQADIQADQSSPRDLLEYFLSGLGETSLPVIQQQVQRYEQENQGLLIDSSLFAQYVQYKAALSELTLPQASGGLSTQEWWQLHQSLLDLQARYFSAEQQALFAEENRLRELAIEKRRIYEQYGQSEEAQRAWQALLLDQPDFIQRSEATAQLLPQLTQAGQGDTQQRYLARVALVGEQGAQRLAELDDSRATFEQQFQDYYQARAAILVRNELSASEQQTQIQQLREQHFAPEQWRRIDALERLKDN”: “not soluble”.
Regarding “YEPEGNRADYWRFARALYAAGFRAGELAYNCFSYHFTPAGSMMETAAHAVGCTVFPGGTGQTEQQVRAIHDLAPSGYTGTPSFLKLILEKADELGIRLDSLRRALVSGEAFPPSLRDWLAARGIEGYQAYGSADLGMIAFETPAREGLVVGED”, the “soluble on expression in E. coli” value was “not soluble”.
On to “YHTEKTLPERTNEAAMSAAVVRGKLVWEQNNCVGCHTLLGEGAYFAPELGNVVGRRGGEEGFNTFLQAWMNIQPLNVPGRRAMPQFHLSEGQVDDLAEFLKWSSKIDTNQWPPNKEG”, for which the “soluble on expression in E. coli” value is recorded as “not soluble”.
Then “YIQLEGEKFNESARVFTEYLKTKTSDEIPSLLQSYSKSLTISAHLKRDIVDKRLPLVHDLDIKDGKLSNYIVMLDMSVSTADGKQVTVQFVHGVDVYKEAKNI”, with “not soluble”; and “YRATKLWNEVTTSFRAGMPLRKHRQHFKKYGNCFTAGEAVDWLYDLLRNNSNFGPEVTRQQTIQLLRKFLKNHVIEDIKGRWGSENVDDNNQLFRFPA”, with “soluble”; and “YTIKEAERGVVTRFGKFSHLVEPGLNWKPTFIDEVKPVNVEAVRELAASGVMLTSDENVVRVEMNVQYRVTNPEKYLYSVTSPDDSLRQATDSALRGVIGKYTMDRILTEGRTVIRSDTQRELEETIRPYDMGITLLDVNFQAARPPEEVKAAFDDAIAARENEQQYIREAEAYSNEVQPRANGQAQRILEEARAYKAQTILEAQGEVARFAKLLPEYKAAPEITRERLYIETMEKVLGNTRKVLVNDKGGNLMVLPLDQMLKGGNAPAAKSDNGASNLLRLPPASSSTTSGASNTSSTSQGDIMDQRRANAQRNDYQRQGE”, with “not soluble”.

The values above are taken from the DeepSol protein solubility set.
